# Results published in IntAct's records for PubMed 35512704.
# B1: Speckle-type POZ protein (Homo sapiens), O43791 (parent)
# chain: MSRVPSPPPPAEMSSGPVAESWCYTQIKVVKFSYMWTINNFSFCREEMGEVIKSSTFSSGANDKLKWCLRVNPKGLDEESKDYLSLYLLLVSCPKSEVRAKFKFSILNAKGEETKAMESQRAYRFVQGKDWGFKKFIRRDFLLDEANGLLPDDKLTLFCEVSVVQDSVNISGQNTMNMVKVPECRLADELGGLWENSRFTDCCLCVAGQEFQAHKAILAARSPVFSAMFEHEMEESKKNRVEINDVEPEVFKEMMCFIYTGKAPNLDKMADDLLAAADKYALERLKVMCEDALCSNLSVENAAEILILADLHSADQLKTQAVDFINYHASDVLETSGWKSMVVSHPHLVAEAYRSLASAQCPFLGPPRKRLKQS
# partner: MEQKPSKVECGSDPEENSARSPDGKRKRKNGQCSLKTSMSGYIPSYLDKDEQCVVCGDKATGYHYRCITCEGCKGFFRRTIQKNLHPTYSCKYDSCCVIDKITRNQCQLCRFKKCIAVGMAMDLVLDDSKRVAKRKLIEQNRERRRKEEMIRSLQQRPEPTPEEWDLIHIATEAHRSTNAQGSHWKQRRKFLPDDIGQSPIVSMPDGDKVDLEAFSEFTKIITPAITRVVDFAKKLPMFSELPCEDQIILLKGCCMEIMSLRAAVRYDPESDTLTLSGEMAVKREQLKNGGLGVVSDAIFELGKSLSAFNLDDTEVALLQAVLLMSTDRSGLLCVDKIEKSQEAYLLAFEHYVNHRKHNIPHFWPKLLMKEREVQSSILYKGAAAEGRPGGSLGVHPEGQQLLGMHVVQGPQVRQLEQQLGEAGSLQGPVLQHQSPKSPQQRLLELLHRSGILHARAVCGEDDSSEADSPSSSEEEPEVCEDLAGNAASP
# B2: Speckle-type POZ protein (Homo sapiens), O43791 (parent)
# chain: B1 chain
# partner: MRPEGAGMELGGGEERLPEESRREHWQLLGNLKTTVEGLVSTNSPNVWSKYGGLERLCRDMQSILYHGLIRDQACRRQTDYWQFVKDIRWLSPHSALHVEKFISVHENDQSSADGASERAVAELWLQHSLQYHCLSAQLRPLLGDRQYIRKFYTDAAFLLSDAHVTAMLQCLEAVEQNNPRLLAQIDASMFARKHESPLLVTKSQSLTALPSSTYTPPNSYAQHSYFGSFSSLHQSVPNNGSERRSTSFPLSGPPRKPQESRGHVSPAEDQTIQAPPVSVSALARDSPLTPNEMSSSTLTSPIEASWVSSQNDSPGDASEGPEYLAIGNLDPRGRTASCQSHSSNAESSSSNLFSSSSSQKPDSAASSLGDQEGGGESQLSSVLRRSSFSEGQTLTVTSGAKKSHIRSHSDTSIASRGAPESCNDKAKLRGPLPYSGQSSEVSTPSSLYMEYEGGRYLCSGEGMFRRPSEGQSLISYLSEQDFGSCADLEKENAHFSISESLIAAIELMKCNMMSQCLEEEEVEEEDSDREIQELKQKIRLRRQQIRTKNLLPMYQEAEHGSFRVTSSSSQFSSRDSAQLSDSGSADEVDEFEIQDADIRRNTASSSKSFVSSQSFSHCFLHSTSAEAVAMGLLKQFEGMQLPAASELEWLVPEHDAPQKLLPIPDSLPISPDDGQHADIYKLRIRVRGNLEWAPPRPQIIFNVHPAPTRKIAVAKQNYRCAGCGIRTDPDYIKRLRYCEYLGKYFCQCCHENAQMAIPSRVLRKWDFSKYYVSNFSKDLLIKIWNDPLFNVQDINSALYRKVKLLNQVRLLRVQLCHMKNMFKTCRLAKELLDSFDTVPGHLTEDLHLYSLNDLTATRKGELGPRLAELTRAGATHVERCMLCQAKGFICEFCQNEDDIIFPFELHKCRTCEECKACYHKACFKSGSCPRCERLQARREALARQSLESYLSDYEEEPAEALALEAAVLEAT
# B3: Speckle-type POZ protein (Homo sapiens), O43791 (parent)
# chain: B1 chain
# partner: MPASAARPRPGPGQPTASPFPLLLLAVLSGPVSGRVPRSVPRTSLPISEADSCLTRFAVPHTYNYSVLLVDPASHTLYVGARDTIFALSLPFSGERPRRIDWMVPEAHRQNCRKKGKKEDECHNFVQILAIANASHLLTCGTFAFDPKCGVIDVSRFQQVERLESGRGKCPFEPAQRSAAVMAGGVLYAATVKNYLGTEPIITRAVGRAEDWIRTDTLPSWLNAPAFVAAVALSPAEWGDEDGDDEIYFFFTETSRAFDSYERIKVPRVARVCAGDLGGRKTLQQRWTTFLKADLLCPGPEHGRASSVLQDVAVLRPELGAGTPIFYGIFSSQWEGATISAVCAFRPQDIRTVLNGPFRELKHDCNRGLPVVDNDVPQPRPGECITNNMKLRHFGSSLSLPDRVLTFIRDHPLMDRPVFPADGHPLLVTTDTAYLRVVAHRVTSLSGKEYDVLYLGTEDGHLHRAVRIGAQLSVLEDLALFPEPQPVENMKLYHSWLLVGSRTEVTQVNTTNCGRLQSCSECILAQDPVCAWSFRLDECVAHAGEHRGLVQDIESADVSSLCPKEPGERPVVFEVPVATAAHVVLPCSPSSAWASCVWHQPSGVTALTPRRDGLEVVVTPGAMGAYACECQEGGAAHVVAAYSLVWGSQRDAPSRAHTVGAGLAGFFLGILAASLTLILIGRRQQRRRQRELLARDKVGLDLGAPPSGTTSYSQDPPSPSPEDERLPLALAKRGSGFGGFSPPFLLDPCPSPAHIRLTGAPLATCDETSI
# B4: Speckle-type POZ protein (Homo sapiens), O43791 (parent)
# chain: B1 chain
# partner: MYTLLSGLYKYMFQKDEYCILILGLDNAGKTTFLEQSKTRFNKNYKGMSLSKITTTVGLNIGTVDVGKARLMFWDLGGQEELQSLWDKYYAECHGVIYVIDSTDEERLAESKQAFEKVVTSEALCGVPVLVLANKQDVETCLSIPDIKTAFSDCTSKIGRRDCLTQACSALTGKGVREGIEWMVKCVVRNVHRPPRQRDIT
# B5: Speckle-type POZ protein (Homo sapiens), O43791 (parent)
# chain: B1 chain
# partner: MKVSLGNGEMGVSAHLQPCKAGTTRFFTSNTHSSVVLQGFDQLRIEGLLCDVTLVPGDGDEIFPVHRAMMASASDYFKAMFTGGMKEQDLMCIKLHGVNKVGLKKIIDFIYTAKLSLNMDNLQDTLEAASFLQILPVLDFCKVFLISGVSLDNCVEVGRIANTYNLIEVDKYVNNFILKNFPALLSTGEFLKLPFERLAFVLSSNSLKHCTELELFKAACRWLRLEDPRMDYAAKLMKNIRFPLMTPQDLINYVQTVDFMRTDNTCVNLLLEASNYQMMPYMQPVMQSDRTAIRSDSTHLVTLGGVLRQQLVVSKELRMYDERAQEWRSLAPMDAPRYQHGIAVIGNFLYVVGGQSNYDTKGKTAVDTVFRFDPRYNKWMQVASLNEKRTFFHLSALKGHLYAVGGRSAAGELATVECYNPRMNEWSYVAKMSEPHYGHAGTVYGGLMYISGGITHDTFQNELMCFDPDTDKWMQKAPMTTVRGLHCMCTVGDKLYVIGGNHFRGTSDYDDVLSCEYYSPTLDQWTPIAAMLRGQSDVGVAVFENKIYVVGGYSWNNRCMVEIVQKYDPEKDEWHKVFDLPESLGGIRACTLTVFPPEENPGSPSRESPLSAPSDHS
# B6: Speckle-type POZ protein (Homo sapiens), O43791 (parent)
# chain: B1 chain
# partner: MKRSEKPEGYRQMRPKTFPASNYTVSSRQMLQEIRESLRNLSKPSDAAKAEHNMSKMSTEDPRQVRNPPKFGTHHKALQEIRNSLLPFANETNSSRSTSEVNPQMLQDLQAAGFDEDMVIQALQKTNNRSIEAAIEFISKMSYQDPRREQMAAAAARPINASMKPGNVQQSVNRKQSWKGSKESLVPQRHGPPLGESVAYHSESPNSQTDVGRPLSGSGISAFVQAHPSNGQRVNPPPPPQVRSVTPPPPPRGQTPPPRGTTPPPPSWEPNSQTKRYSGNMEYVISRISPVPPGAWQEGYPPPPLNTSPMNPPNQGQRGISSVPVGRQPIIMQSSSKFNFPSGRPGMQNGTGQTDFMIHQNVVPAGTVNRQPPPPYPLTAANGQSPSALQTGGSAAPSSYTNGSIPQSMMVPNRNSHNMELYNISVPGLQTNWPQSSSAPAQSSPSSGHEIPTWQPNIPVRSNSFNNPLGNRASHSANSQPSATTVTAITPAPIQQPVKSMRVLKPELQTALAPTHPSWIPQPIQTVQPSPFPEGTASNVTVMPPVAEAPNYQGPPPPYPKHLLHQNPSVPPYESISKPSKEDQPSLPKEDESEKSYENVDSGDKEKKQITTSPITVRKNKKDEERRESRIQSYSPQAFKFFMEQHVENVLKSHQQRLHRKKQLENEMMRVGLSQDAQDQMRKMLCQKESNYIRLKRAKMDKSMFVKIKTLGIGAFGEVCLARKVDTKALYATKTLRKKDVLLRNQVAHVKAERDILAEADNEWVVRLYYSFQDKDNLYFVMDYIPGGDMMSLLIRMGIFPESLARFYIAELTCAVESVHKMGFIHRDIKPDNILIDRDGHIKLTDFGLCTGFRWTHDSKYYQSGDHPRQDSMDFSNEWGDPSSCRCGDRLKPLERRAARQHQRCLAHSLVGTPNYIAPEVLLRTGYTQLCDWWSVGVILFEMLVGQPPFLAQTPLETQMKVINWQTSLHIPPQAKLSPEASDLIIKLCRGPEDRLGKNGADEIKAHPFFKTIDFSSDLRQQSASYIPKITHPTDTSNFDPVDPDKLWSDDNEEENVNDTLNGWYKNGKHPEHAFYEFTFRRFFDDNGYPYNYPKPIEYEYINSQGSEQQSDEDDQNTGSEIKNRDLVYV
# Variants of: B1
# Details: with tha_human THRA
row,Variant,effect of a mutation on the interaction
1,F133V,with no effect

# Variants of: B1
# Details: with tha_human THRA
# Remark: another data set of the same source
row,Variant,effect of a mutation on the interaction
1,F133L,with no effect

# Variants of: B1
# Details: with tha_human THRA
# Remark: another data set of the same source
row,Variant,effect of a mutation on the interaction
1,F102C,with no effect

# Variants of: B1
# Details: with tha_human THRA
# Remark: another data set of the same source
row,Variant,effect of a mutation on the interaction
1,Y87C,with no effect

# Variants of: B2
# Details: with rubic_human RUBCN
row,Variant,effect of a mutation on the interaction
1,Y87C,with no effect

# Variants of: B2
# Details: with rubic_human RUBCN
# Remark: another data set of the same source
row,Variant,effect of a mutation on the interaction
1,F102C,with no effect

# Variants of: B2
# Details: with rubic_human RUBCN
# Remark: another data set of the same source
row,Variant,effect of a mutation on the interaction
1,F133V,with no effect

# Variants of: B2
# Details: with rubic_human RUBCN
# Remark: another data set of the same source
row,Variant,effect of a mutation on the interaction
1,F133L,with no effect

# Variants of: B3
# Details: with sem4f_human SEMA4F
row,Variant,effect of a mutation on the interaction
1,F133V,with no effect

# Variants of: B3
# Details: with sem4f_human SEMA4F
# Remark: another data set of the same source
row,Variant,effect of a mutation on the interaction
1,F133L,with no effect

# Variants of: B3
# Details: with sem4f_human SEMA4F
# Remark: another data set of the same source
row,Variant,effect of a mutation on the interaction
1,F102C,with no effect

# Variants of: B3
# Details: with sem4f_human SEMA4F
# Remark: another data set of the same source
row,Variant,effect of a mutation on the interaction
1,Y87C,with no effect

# Variants of: B4
# Details: with arfrp_human ARFRP1, Q13795
row,Variant,effect of a mutation on the interaction
1,Y87C,with no effect

# Variants of: B5
# Details: with klhl9_human KLHL9, Q9P2J3
row,Variant,effect of a mutation on the interaction
1,F133L,with no effect

# Variants of: B5
# Details: with klhl9_human KLHL9, Q9P2J3
# Remark: another data set of the same source
row,Variant,effect of a mutation on the interaction
1,Y87C,with no effect

# Variants of: B6
# Details: with lats1_human LATS1, O95835
row,Variant,effect of a mutation on the interaction
1,Y87C,with no effect

# Variants of: B6
# Details: with lats1_human LATS1, O95835
# Remark: another data set of the same source
row,Variant,effect of a mutation on the interaction
1,F133V,with no effect

# Variants of: B6
# Details: with lats1_human LATS1, O95835
# Remark: another data set of the same source
row,Variant,effect of a mutation on the interaction
1,F133L,with no effect
